Tests used:
[1] = target: the molecule itself; assay: cryo-EM structure; E. coli MukEF 1 uM with 4 uM gp5.9 in 20 mM Tris, 200 mM NaCl, 0.5 mM TCEP, 0.05 % β-octyl glucoside, pH 7.4; focused refinement on gp5.9/MukE
[2] = target: the molecule itself; assay: cryo-EM structure; wild-type P. thracensis MukBEF dimers 150 nM with nicked plasmid pFB526, 5 mM ATP, 10 mM MgCl2, optionally Na3VO4 or BeSO4/NaF; datasets pooled; open-gate and DNA capture states

Protein | stoichiometry N [1] | binding result [2]
T7 gp5.9 (untagged after cleavage, from insect cells) (natural protein, bacteriophage T7, gp5.9 of bacteriophage T7; Used as 'gp5.9 dimers' in SEC; source: Hi5 insect cells, purified (Talon, 3C cleavage, HisTrap flowthrough, MonoQ)) MSRDLVTIPRDVWNDIQGYIDSLERENDSLKNQLMEADEYVAELEEKLNGTS | 2 | –
P. thracensis MukB, wild type, as subunit of the MukBEF complex used for cryo-EM (natural protein, Photorhabdus thracensis, UniProt A0A0F7LRY2 1-1482, looked up, MukB of Photorhabdus thracensis; the MukB chain of m14; also called κ-MukB; ν-MukB; source: E. coli BL21-Gold(DE3), polycistronic pFB403, purified as the MukBEF complex; not shown: His6-SUMO, N-terminal, cleaved) MIERGKFRSLTLVNWNGFFARTFDLDELVTTLSGGNGAGKSTTMAAFVTALIPDLTLLHFRNTTEAGATSGSRDKGLHGKLRAGVCYSTLDVINSRHQRVVVGVRLQQVAGRDRKVDIKPFMIQGLPTAIQPTQLLTENVGERQARVLPLNELKDRLDEMEGVQFKQFNSITDYHAQMFDLGVIPKRLRSASDRSKFYRLIEASLYGGISSAITRSLRDYLLPENSGVRKAFQDMEAALRENRITLEAIRVTQSDRDLFKHLITEATSYVSADYMRHANERRTHLDEALALRGELFGSHKQLATEQYRHVEMARELAEQSGASSDLETDHQAASDHLNLVQTAMRQQEKIDRYQVDLEELSYRLEEQTDVVEEAGELQAEYEARTEATEQEVDELKSQLADYQQALDVQQTRAIQYQQALQALERARELCRLPDLSVDNAEEWLETFQAKEQQATEALLALEQKLSVADAAHNQFEQAYQLVKNIVGETSRSEAWQSARELLRDWPSQRHLADRVQPLRMRLSELEQRLNNQQNAERLLSEFCKRQGRQYQAEDLEALQNELEARQEALSLSVNEGGERRMEMRQELEQLKQKIQSLTARAPVWLAAQDTLNQLCEQSGETLASSNDVTEYMQQLLEREREATVERDEVAAQKRELEKQIERLSQPSGAEDSRMIALAERFGGVLLSEIYDDITIDDAPYFSALYGPARHGIVVPDLSLVRPHLETLEDCPEDLYLIEGDPQSFDDSVFNAEEQTNAVLVKSSDRQWRYSRYPELPLFGRAARENRLEALNLERDALAERYATLSFDVQKIQRAHQAFSQFVGKHLSVAFDTDPEAEIRELRQRHTELEREVSRFEDQTQQQRQQYAQAKESLTTLNRLIPQVTLLLDETLIDRVEEVREEMDEAQEAARFLQQHGSALTKLEPMVAVLQSDPQQHEQLQQDYETAKHSQHQAKQQAFALVEIVQRRVHFSYSDSAGMLSENADLNDKLRQRLEHAESDRSRAREQLRQQQAQYSQFNQVLASLKSSYETKQDMLKELLQEMKDIGVQADANAEMRARERRDRLHEALSVNRSRVNQLEKQIAFCEAEMENVQKKLRKLERDYYQIREQVVSAKAGWCAVMRMVKDNGVERRLHRRELAYMEGGALRSMSDKALGALRLAVADNEHLRDALRLSEDPKRPERKVQFFIAVYQHLRERIRQDIIRTDDPVDAIEQMEIELARLTEELTAREQKLAISSKSVANIIRKTIQREQNRIRMLNQGLQAVSFGQVRGVRLNVNVRESHAILLDVLSEQQEQHQDLFNSQRLTFSEAMAKLYQRLNPQVDMGQRLPQTIGEELLDYRNYLELDVEVNRGSDGWLKAESGALSTGEAIGTGMSILVMVVQSWEEESRRLRGKDISPCRLLFLDEAARLDAKSIATLFELCERLQMQLIIAAPENISPEKGTTYKLVRKVFKNHEHVHVVGLRGFGQDAPATQLISDVTA | – | binds
